According to article PMC11840411, “GS2 cooperates with IPA1 to control panicle architecture” (The New Phytologist, 2025):

T1: GS2TM (miR396 target-site mutant) (Oryza sativa (rice), GS2TM plants?, UniProt Q6ZIK5 1-394, S163K)
T1 sequence: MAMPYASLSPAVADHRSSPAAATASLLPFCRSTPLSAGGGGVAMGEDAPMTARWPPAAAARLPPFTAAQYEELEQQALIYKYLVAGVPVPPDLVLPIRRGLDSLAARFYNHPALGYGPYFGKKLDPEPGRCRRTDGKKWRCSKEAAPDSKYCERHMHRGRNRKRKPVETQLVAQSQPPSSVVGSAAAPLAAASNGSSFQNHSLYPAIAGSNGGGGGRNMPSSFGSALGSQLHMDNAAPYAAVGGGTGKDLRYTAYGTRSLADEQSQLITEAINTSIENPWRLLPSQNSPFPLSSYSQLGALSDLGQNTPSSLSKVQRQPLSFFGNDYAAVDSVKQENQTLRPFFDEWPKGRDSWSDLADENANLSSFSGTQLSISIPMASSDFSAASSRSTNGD

T2: GS2 (OsGRF4) (Oryza sativa (rice), ZH11?, UniProt Q6ZIK5 1-394)
T2 sequence: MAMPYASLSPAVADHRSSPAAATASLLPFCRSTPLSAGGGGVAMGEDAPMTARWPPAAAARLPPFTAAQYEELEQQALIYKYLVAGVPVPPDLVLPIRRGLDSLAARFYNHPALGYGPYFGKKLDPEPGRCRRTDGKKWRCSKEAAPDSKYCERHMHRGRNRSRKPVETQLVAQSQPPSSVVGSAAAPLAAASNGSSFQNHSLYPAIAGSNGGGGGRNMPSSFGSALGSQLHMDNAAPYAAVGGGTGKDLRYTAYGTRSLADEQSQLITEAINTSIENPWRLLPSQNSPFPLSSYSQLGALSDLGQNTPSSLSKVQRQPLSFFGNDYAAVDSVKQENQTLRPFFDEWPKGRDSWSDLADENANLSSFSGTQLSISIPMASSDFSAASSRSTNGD

T3: GST-IPA1 fusion protein (rice (Oryza sativa), UniProt Q7EXZ2 1-417)
T3 construct: IPA1/OsSPL14 of rice, full-length CDS in pGEX-4T-1; source: E. coli BL21 (DE3), purified on glutathione beads
T3 sequence (looked up): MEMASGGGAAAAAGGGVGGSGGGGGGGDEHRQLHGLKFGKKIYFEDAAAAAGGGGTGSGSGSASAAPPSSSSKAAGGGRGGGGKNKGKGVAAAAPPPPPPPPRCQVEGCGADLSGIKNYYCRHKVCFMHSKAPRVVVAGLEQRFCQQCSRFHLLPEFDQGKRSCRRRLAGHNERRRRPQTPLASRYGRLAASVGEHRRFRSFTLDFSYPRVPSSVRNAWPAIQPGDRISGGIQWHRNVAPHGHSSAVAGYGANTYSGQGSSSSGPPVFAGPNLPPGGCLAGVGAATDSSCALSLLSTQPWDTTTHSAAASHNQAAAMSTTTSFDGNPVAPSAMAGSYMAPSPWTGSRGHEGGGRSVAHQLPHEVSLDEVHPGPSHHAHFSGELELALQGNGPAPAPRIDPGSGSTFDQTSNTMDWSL


What was measured:
[1] = biological target: T1, GS2TM (miR396 target-site mutant); assay: EMSA; EMSA: 20 min at 25 C, 4% acrylamide gel, biotin probes (Beyotime GS008/GS009); buffer, salt and pH not stated; conditions: protein: recombinant; tags: GST; label: biotin; blunt
GS2 (OsGRF4) = biological target: T2, GS2 (OsGRF4); assay: as above; conditions: protein: recombinant; tags: GST; label: biotin; blunt
GST-IPA1 fusion protein = biological target: T3, GST-IPA1 fusion protein; assay: pull-down; about 0.5 μg GST-IPA1 bound to GST beads at 4°C for 2 h, the same amount of His-GS2 incubated for 2 h; 150 mM KCl, 50 mM Tris-HCl pH 7.5, 0.01% NP-40; detected with His and GST antibodies; conditions: both partners purified

| binding result (GST-IPA1 fusion protein) | Binder | binding result [1] | binding result (GS2 (OsGRF4)) |
| --- | --- | --- | --- |
| – | GCCA core motif probe (GS2-EMSA) (dsDNA) DNA 1: CCTGTCAAAGCCGGCCATCGCTGCCGGCTG DNA 2: CAGCCGGCAGCGATGGCCGGCTTTGACAGG | binds | binds |
| binds | His-GS2 fusion protein (natural protein, rice (Oryza sativa), UniProt Q6ZIK5 1-394, looked up, GS2/OsGRF4 of rice, full-length CDS in pET28a) MAMPYASLSPAVADHRSSPAAATASLLPFCRSTPLSAGGGGVAMGEDAPMTARWPPAAAARLPPFTAAQYEELEQQALIYKYLVAGVPVPPDLVLPIRRGLDSLAARFYNHPALGYGPYFGKKLDPEPGRCRRTDGKKWRCSKEAAPDSKYCERHMHRGRNRSRKPVETQLVAQSQPPSSVVGSAAAPLAAASNGSSFQNHSLYPAIAGSNGGGGGRNMPSSFGSALGSQLHMDNAAPYAAVGGGTGKDLRYTAYGTRSLADEQSQLITEAINTSIENPWRLLPSQNSPFPLSSYSQLGALSDLGQNTPSSLSKVQRQPLSFFGNDYAAVDSVKQENQTLRPFFDEWPKGRDSWSDLADENANLSSFSGTQLSISIPMASSDFSAASSRSTNGD | – | – |
